Measurements reported in publication PMC4893650 (Theranostics, 2016).

Molecular target: purified HER2 protein (human epidermal growth factor receptor-2) (human, UniProt P04626 23-652)
Test: SPR

CDTFPYLGWWNPNEYRY [peptide P51] was tested, and the Kd was 18.6 nM.
